Measurements taken from the DeepSol protein solubility set.

Experiment: soluble on expression in E. coli; label from the status in PepcDB or PDB records

Row | Sequence | soluble on expression in E. coli
1 | AIACTGCVQKQYPDRGNTCLENGSYLMNFVGCANCHQRDFVLISDRTMVNEDEEEIVTYLHMCKNCEHVIARHEYTFTVVDDYQEYTMLCMLCGKAEDSISVLPDDPRQTAPLF | soluble
2 | AIAFRSVLVEAAVRVESPLLAHRLEDALLHACKQRFCSRILPSLGVCLTALRICKLVDGAGKQLALEIWPVEVSGGGLRARVHVELLLWSPLPHELAFAQVRSCSRFGIRLSILNGFDYAFVPPGSMPEPCTYHEEQRCWSWRFNEDDFVIGEGDWVRVLIERVEYATDSAMATFDSPGTVGSGPPLHILPPPVPVGRTVMETDQANATPGAHPEHAPPLETEPPEFWETPSILPLRVWARLDAPGLGPIDWWS | soluble
3 | AIASSAPAPGPAPASLTLWDEEDFQGRRCRLLSDCANVCERGGLPRVRSVKVENGVWVAFEYPDFQGQQFILEKGDYPRWSAWSGSSSHNSNQLLSFRPVLCANHNDSRVTLFEGDNFQGCKFDLVDDYPSLPSMGWASKDVGSLKVSSGAWVAYQYPGYRGYQYVLERDRHSGEFCTYGELGTQAHTGQLQSIRRVQH | soluble
4 | ALEEVVRYLGPHNEIPLTLTRDSETGHFLLKHFLPILQQYHDTGNINETNPDSFPTDEERNKLLAHYGIAVNTDDRGELWIELEKCLQLLNMLNLFGLFQDAFEFEEPETDQDEEDPSHSKLPEN | soluble
5 | ALKPTIYKFRIALSDMNNDYYDSKNLTIALHPSEKPQRMLARILAFCLNAQKDLEFTKGLSTTEEPDLWHVADDQSITHWIEIGEPEPDRIKKASRLAKQVKVYTYNTKAPVWWEKMSGKFSMLPVSVESFDYDAIDMICQHLDRGTNLSVMITGTSIFVDVNDQHVEVTVKELQS | soluble
6 | ALVELKVPDIGGHENVDIIAVEVNVGDTIAVDDTLITLETDKATMDVPAEVAGVVKEVKVKVGDKISEGGLIVVVEAEGTA | soluble
7 | AMKPAQKGKTFSNVEIFDPPTNYRDPQVLYARPLELSDGTLLGTWENYSPEPPNVWFPIVKSKDGGKTWKEISKVKDTQNNWGLRYQPQLYELPRAFGKYPKGTVLCSGSSIPSDLSETLIEVYASRDKGYTWEFVSHVALGGEALPNPGLTPVWEPFLMTYKEKLILYYSDQRDNATHSQKLVHQTTTDLKKWSKVVDDTKYADYYARPGMPTVAKLPNNEYIYVYEYGGGPNPPAGSDYWFPVYYRLSKDPQKFLNKAHHQIVSNDGTTPAGSPYVVWTPYGGKNGTIVVSCGTRSEIFTNQALGDASAWKKWDVPQPTAYTRSLLTFQKDPDLLMIMGAGILPPAGGKNTVSASVVRLSEVMKS | soluble
8 | AMLPHGLIVSCQALPDEPLHSSFIMSKMALAAYEGGAVGIRANTKEDILAIKETVDLPVIGIVKRDYDHSDVFITATSKEVDELIESQCEVIALDATLQQRPKETLDELVSYIRTHAPNVEIMADIATVEEAKNAARLGFDYIGTTLHGYTSYTQGQLLYQNDFQFLKDVLQSVDAKVIAEGNVITPDMYKRVMDLGVHCSVVGGAITRPKEITKRFVQVMED | soluble
9 | APAEPAAPKSGEAETPPKHPGVLKVEAILEKVQGLEQAVDSFEGKKTDKKYLMIEEYLTKELLALDSVDPEGRADVRQARRDGVRKVQTILEKLEQKA | soluble
10 | APLATRQGKRPSKNLKARCSRKALHVNFKDMGWDDWIIAPLEYEAFHCEGLCEFPLRSHLEPTNHAVIQTLMNSMDPESTPPTCCVPTRLSPISILFIDSANNVVYKQYEDMVVESCGCR | soluble
11 | APQIQYKQLQLARLKILRELSNKRNSTVITMIHRQESIGLFGIPVYKFITIEDSEEILRAIRAAPKDKPIDLIIHTPGGLVLAATQIAKALKAHPAETRVIVPHYAMSGGTLIALAADKIIMDENAVLGPVDPQLGQYPAPSIVKAVEQKGADKADDQTLILADIAKKAINQVQNFVYNLLKDKYGEEKAKELSKILTEGRWTHDYPITVEEAKELGL | not soluble
12 | AQPDIKFASKEYGVTIGESRIIYPLDAAGVMVSVKNTQDYPVLIQSRIYDENKEKESEDPFVVTPPLFRLDAKQQNSLRIAQAGGVFPRDKESLKWLCVKGIPPKDEDIWVDDATNKQKFNPDKDVGVFVQFAINNCIKLLVRPNELKGTPIQFAENLSWKVDGGKLIAENPSPFYMNIGELTFGGKSIPSHYIPPKSTWAFDLPKGLAGARNVSWRIINDQGGLDRLYSKNVTL | soluble
13 | AQYEDGKQYTTLEKPVAGAPQVLEFFSFFCGHAYQFEEVLHISDNVKKKLPEGVKMTKYHVNFMGGDLGKDLTQAWAVAMALGVEDKVTVPLFEGVQKTQTIRSASDIRDVFINAGIKGEEYDAAWNSFVVKSLVAQQEKAAADVQLRGVPAMFVNGKYQLNPQGMDTSNMDVFVQQYADTVKYLSEKK | soluble
14 | ARIGLYEKALPQNLTWAERLTWAKKLGFDFLEMSIDESDERLARLAWTPSQLQEFSQLMVKEDFFIHSLCLSGHRRFPLGSLNKETREKGRKILSQAIRLAHQLNIRVIQIAGYDVFYEEKTAETREFFLQGLKKGVEEAAQYGVILAVEIMDDPFMNSIQKFLEIKEQIPSPFLHVYPDLGNLSAWPENNPAVELEKGIAEIAAIHLKDTFAVTDTFEGKFREVTFGEGCVDFTGLLKTLKRLNYSGPFLIEMWNETDLNFQEKIQAAQQYLYPKLAEVGYY | not soluble
15 | ARPCIPKSFGYSSVVCVCNATYCDSFDPPTFPALGTFSRYESTRSGRRMELSMGPIQANHTGTGLLLTLQPEQKFQKVKGFGGAMTDAAALNILALSPPAQNLLLKSYFSEEGIGYNIIRVPMASCDFSIRTYTYADTPDDFQLHNFSLPEEDTKLKIPLIHRALQLAQRPVSLLASPWTSPTWLKTNGAVNGKGSLKGQPGDIYHQTWARYFVKFLDAYAEHKLQFWAVTAENEPSAGLLSGYPFQCLGFTPEHQRDFIARDLGPTLANSTHHNVRLLMLDDQRLLLPHWAKVVLTDPEAAKYVHGIAVHWYLDFLAPAKATLGETHRLFPNTMLFASEACVGSKFWEQSVRLGSWDRGMQYSHSIITNLLYHVVGWTDWNLALNPEGGPNWVRNFVDSPIIVDITKDTFYKQPMFYHLGHFSKFIPEGSQRVGLVASQKNDLDAVALMHPDGSAVVVVLNRSSKDVPLTIKDPAVGFLETISPGYSIHTYLWHRQ | soluble
16 | ARSTNTFNYATYHTLDEIYDFMDLLVAQHPELVSKLQIGRSYEGRPIYVLKFSTGGSNRPAIWIDLGIHSREWITQATGVWFAKKFTENYGQNPSFTAILDSMDIFLEIVTNPNGFAFTHSENRLWRKTRSVTSSSLCVGVDANRNWDAGFGKAGASSSPCSETYHGKYANSEVEVKSIVDFVKNHGNFKAFLSIHSYSQLLLYPYGYTTQSIPDKTELNQVAKSAVAALKSLYGTSYKYGSIITTIYQASGGSIDWSYNQGIKYSFTFELRDTGRYGFLLPASQIIPTAQETWLGVLTIMEHTVNN | soluble
17 | ASSGIVKMVSPTSKIEPCIVSVTYGSMTLNGLWLDDKVYCPRHVICSSSNMNEPDYSALLCRVTLGDFTIMSGRMSLTVVSYQMQGCQLVLTVSLQNPYTPKYTFGNVKPGETFTVLAAYNGRPQGAFHVTMRSSYTIKGSFLCGSCGSVGYVLTGDSVKFVYMHQLELSTGCHTGTDFTGNFYGPYRDAQVVQLPVKDYVQTVNVIAWLYAAILNNCAWFVQNDVCSTEDFNVWAMANGFSQVKADLVLDALASMTGVSIETLLAAIKRLYMGFQGRQILGSCTFEDELAPSDVYQQLAGV | soluble
18 | ASWSHPQFEKGAMSNYSMSRGHSDKCVGAEDILSEIKEAEKVLNAASDELKREGHNVKTFIDRTSTTQSANLNKIVNWHNANPADVHISVHLNAGKGTGVEVWYYAGDEKGRKLAVEISAKMAKALGLPNRGAKATKDLRFLNSTKGTAVLLEVCFVDRKEDANAIHKSGMYDKLGIAIAEGLTGKTVAAKNPNRHSGAVVDSVPMLSKMDFKSSPIKMYKAGSSLLVYEHNKYWYKAYINDKLCYIYKSFCISNGKKDAKGRIKVRIKSAKDLRIPVWNNTKLNSGKIKWYSPGTKLSWYDNKKGYLELWYEKDGWYYTANYFLK | soluble
19 | ATDVAARGLDISGVTHVYNYDIPQDPESYVHRIGRTGRAGKEGMAITFVQPREMGYLRIVEETTKKRMQPLQAPTWDEAFAGQLRVATEKIQEAITEENLADYKTFANELLEKYDATDIAAAMLKMLAKEPDKTPVHITEERPLPSRGGGGYKGK | not soluble
20 | DAAPAPAAEAAPAAAPAPAAAAELKEVHVPDIGGDEVEVTEIMVAIGDSIEEEQSLITVEGDKASMEVPAPFAGTLKEIKVAAGDKVSTGSLIMVFETAGSGAPAAPAAVEAPAAAAPAASAA | not soluble
21 | DDEITREPRKVVLHRGSTGLGFNIVGGEDGEGIFISFILAGGPADLSGELRKGDRIISVNSVDLRAASHEQAAAALKNAGQAVTIVAQYRPEEYSRQHA | soluble
22 | DDGEPYALCVVATDITDQKQRERELARLTDEYAAVFENTNDAIALVDIEEPADDPTFRYVRTNEAYERQTGFDTESLTGQTPVEAAGPDIGRRIADHYKQCVSAGEPITFEERDLHPTGVWETQVTPIAADG | not soluble
23 | DEAMVKIEKQEIVEHLSENSLLVQLKYAGASTDEPLLNELYKHYQVMANILYGNIEILDGTPVGELVVVLSGEKAALAGAQEAIRQAGVQLKVLKGVQ | not soluble
24 | DFELLHKLGGGNYGDVHLASVKDCNFVCALKRLSIKKLADFDIATQLRREIEIAFNTRHKYLLRTYAYFFDETDIYLIMEPCSNGMLYTELNRVKCFAPPTAARYVAQLAEALLYLHQHHILHRDIKPENILLDHNNNIKLADFGWSVHDPDNRRKTSCGTPEYFPPEIVGRQAYDTSADLWCLGIFCYELLVGKTPFVGKDTDQICKNIHSMHFKIPENIPSEAKDLIANLLLRDGSRRLALHRVVNHQFLLKYYYLPNNL | soluble
25 | DFVGGTKMNMPAAQLETSEVADTFKDATGIEPELVQIVGSGDTRILEINSERLSEDQISQARVALFEKYQPVGSQGQPTPDAIGDSTVSESWGSTITQR | not soluble
26 | DGPGDGFTILSSKSLVLGQKLSLTQSDISHIGSMRVEGIVHPTTAEIDLKEDIGKALEKAGGKEFLETVKELRKSQGPLEVAEAAVSQSSGLAAKFVIHCHIPQWGSDKCEEQLEETIKNCLSAAEDKKLKSVAFPPFPSGRNCFPKQTAAQVTLKAISAHFDDSSASSLKNVYFLLFDSESIGIYVQEMAKL | soluble
27 | DIELTQSPASLSVATGEKVTIRCMTSTDIDDDMNWYQQKPGEPPKFLISEGNTLRPGVPSRFSSSGTGTDFVFTIENTLSEDVGDYYCLQSFNVPLTFGCGTKLEIK | soluble
28 | DIKMTQSPSSMSASLGESVTITCKASRDIKSYLSWYQQKPWKSPKTLIYYATSLADGVPSRFSGSGSGQDYSLTISSLESDDTATYYCLQHGESPFTFGSGTKLELKRADAAPTVSIFPPSSEQLTSGGASVVCFLNNFYPKDINVKWKIDGSERQNGVLNSWTDQDSKDSTYSMSSTLTLTKDEYERHNSYTCEATHKTSTSPIVKSFN | soluble
29 | DIQMTQSPSSLSASVGDRVTITCRASGNIHNYLAWYQQKPGKAPKLLIYYTTTLADGVPSRFSGSGSGTDYTFTISSLQPEDIATYYCQHFWSTPRTFGQGTKVEIKR | soluble
30 | DIQMTQSPSSLSATLGGKVTITCKASQDINKYIAWYQHKPGKGPRLLIHYTSTLQPGNPSRFSGSGSGRDYSFSISNLEAEDIAIYYCLQYDNLQRTFGGGTKVEIKRADAAPTVSIFPPSSEQLTSGGASVVCFLNNFYPKDINVKWKIDGSERQNGVLNSWTDQDSKDSTYSMSSTLTLTKDEYERHNSYTCEATHKTSTSPIVKSFNRNE | soluble
